Assay results published in US20250019427A1 (BYOMASS, published 2025).
“And” between values parts separate entries of the source, which are not always exact repeats. Equal values may be shown once.

T1: Mouse GDF15 Fc (mouse, UniProt Q9Z0J7 189-303, limits assumed)
T1 construct: also called mouse GDF15Fc fusion
T1 sequence (looked up): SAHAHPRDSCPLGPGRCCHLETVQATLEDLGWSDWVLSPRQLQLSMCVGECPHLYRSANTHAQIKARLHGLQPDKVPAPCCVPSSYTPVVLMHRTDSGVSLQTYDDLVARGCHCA

T2: Cyno GDF15 Fc (cyno, UniProt G7PWZ3 193-308)
T2 construct: also called cyno GDF15-Fc fusion
T2 sequence: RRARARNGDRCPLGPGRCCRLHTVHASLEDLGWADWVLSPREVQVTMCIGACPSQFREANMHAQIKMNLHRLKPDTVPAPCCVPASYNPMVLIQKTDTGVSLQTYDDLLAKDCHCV

T3: GDF15 (Homo sapiens (Human), UniProt Q99988 30-308)
T3 sequence: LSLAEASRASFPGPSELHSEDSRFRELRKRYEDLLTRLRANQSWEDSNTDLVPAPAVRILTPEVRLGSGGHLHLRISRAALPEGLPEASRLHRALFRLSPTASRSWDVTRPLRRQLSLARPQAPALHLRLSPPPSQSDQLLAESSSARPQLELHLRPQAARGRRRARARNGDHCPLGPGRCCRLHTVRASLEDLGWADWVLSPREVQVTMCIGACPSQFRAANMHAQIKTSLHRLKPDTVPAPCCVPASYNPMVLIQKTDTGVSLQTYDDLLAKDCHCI

T4: Human BMP10 (human, UniProt O95393 317-424)
T4 sequence (looked up): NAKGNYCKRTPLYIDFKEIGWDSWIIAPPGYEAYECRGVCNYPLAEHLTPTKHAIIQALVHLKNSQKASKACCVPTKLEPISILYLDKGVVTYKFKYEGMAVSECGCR

T5: Human Activin B (human, UniProt P09529 293-407)
T5 construct: Also used for the Activin B ligand of the ActRIIB/SMAD reporter assay, where the species is not restated
T5 sequence (looked up): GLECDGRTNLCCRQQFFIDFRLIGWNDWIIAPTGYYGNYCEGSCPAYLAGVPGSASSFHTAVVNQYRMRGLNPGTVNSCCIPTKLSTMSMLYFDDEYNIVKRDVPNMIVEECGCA

T6: Human Activin A Fc (human, UniProt P08476 311-426)
T6 sequence (looked up): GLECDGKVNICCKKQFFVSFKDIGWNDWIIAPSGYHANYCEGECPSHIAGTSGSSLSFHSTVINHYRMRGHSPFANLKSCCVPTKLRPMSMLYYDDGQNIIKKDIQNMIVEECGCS

T7: GDNF (UniProt P39905 78-211)
T7 sequence (looked up): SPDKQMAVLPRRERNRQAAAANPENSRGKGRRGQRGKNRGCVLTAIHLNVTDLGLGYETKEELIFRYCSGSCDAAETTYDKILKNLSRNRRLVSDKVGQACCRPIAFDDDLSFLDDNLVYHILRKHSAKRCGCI

B1: Clone E Fab (Fab, V domains shown)
VH: QVQLVQSGAEVKKPGASVKVSCKASGYTFTSYGINWVRQAPGQGLEWMGWITAYSGDTNYAQKLQGRVTMTTDTSTSTAYMELRSLRSDDTAVYYCARGPGQYADVDVWGQGTMVTVSS
VL: DIQMTQSPSSVSASVGDRVTITCRASQGISSWLAWYQQKPGKAPKLLIYAASSLQSGVPSRFSGSGSGTDFTLTISSLQPEDFATYYCQQANSFPITFGGGTKVEIK
notes: Fab format
B2: Clone O Fab (Fab, V domains shown)
VH: QVQLVQSGAEVKKPGATVKVSCKASGYTFDSLGMSWVRQAPGQGLEWMGYISTYSGDTVYAQKLQGRVTMTTDTSTSTAYMELRSLRSDDTAVYYCARESGQQVSALDPWGQGTLVTVSS
VL: DIQMTQSPSSVSASVGDRVTITCRASQGISRWLAWYQQKPGKAPKLLIYAASSLQSGVPSRFSGSGSGTDFTLTISSLQPEDFATYYCQQGASFPLTFGGGTKVEIK
notes: Fab format
B3: Clone I Fab (Fab, V domains shown)
VH: QVQLVQSGAEVKKPGASVKVSCKASGYTFTDEGINWVRQAPGQGLEWMGWITAYSGDTVYAQKLQGRVTMTTDTSTSTAYMELRSLRSDDTAVYYCARGPGQYADVDVWGQGTMVTVSS
VL: DIQMTQSPSSVSASVGDRVTITCRASQGISSWLAWYQQKPGKAPKLLIYAASSLQSGVPSRFSGSGSGTDFTLTISSLQPEDFATYYCQQANSFPITFGGGTKVEIK
notes: Fab format
B4: Clone J Fab (Fab, V domains shown)
VH: QVQLVQSGAEVKKPGASVKVSCKASGYTFTSYGINWVRQAPGQGLEWMGWIDAYSGSTNYAQKLQGRVTMTTDTSTSTAYMELRSLRSDDTAVYYCARGPGQYADVDVWGQGTMVTVSS
VL: DIQMTQSPSSVSASVGDRVTITCRASQGISSWLAWYQQKPGKAPKLLIYAASSLQSGVPSRFSGSGSGTDFTLTISSLQPEDFATYYCQQANSFPITFGGGTKVEIK
notes: Fab format
B5: Clone S Fab (Fab, V domains shown)
VH: QVQLVQSGAEVKKPGASVKVSCKASGYTFTSYGINWVRQAPGQGLEWMGWITAYSGDTNYAQKLQGRVTMTTDTSTSTAYMELRSLRSDDTAVYYCARGPGQYADVDVWGQGTMVTVSS
VL: DIQLTQSPSSVSASVGDRVTITCRASQGISPWLAWYQQKPGKAPKLLIYAASSLQSGVPSRFSGSGSGTDFTLTISSLQPEDFATYYCQQANSFPITFGGGTKVEIK
notes: Fab format
B6: Clone T Fab (Fab, V domains shown)
VH: QVQLVQSGAEVKKPGASVKVSCKASGYTFTSYGINWVRQAPGQGLEWMGWITAYSGDTNYAQKLQGRVTMTTDTSTSTAYMELRSLRSDDTAVYYCARGPGQYADVDVWGQGTMVTVSS
VL: DIQMTQSPSSVSASVGDRVTITCRASQGISSWLAWYQQKPGKAPKLLIYAASSLQSGVPSRFSGSGSGTDFTLTISSLQPEDFATYYCQQASQFPITFGGGTKVEIK
notes: Fab format
B7: Clone P Fab (Fab, V domains shown)
VH: QVQLVQSGAEVKKPGATVKVSCKASGYTFDSYGIHWVRQAPGQGLEWMGWITAYSGDTVYAQKLQGRVTMTTDTSTSTAYMELRSLRSDDTAVYYCARESGQTSSALGPWGQGTLVTVSS
VL: DIQMTQSPSSVSASVGDRVTITCRASQGISRWLAWYQQKPGKAPKLLIYAASSLQSGVPSRFSGSGSGTDFTLTISSLQPEDFATYYCQQGASFPLTFGGGTKVEIK
notes: Fab format
B8: Clone F IgG (antibody, V domains shown)
VH: QVQLVQSGAEVKKPGSSVKVSCKASGGTFGGYAISWVRQAPGQGLEWMGGIIPPYATANYAQKFQGRVTITADESTSTAYMELSSLRSEDTAVYYCARGVGTTHLDVWGQGTMVTVSS
VL: not shown
notes: IgG format
B9: Clone F Fab (Fab, V domains shown)
VH: QVQLVQSGAEVKKPGSSVKVSCKASGGTFGGYAISWVRQAPGQGLEWMGGIIPPYATANYAQKFQGRVTITADESTSTAYMELSSLRSEDTAVYYCARGVGTTHLDVWGQGTMVTVSS
VL: not shown
notes: Fab format
B10: Clone G Fab (Fab, V domains shown)
VH: QVQLVQSGAEVKKPGSSVKVSCKASGGTFQGYAISWARQAPGQGLEWMGGIIPPYATANYAQKFQGRVTITADESTSTAYMELSSLRSEDTAVYYCARGVGELHLDVWGQGTMVTVSS
VL: not shown
notes: Fab format
B11: Clone N Fab (Fab, V domains shown)
VH: QVQLVQSGAEVKKPGASVKVSCKASGYTFTDYGIFWVRQAPGQGLEWMGWITAYSGDTHYAQKLQGRVTMTTDTSTSTAYMELRSLRSDDTAVYYCVRDTQYGGSPYWGQGTLVTVSS
VL: EIVMTQSPATLSVSPGERATLSCRASQSVSSNLAWYQQKPGQAPRLLIYGASTRATGIPARFSGSGSGTEFTLTISSLQSEDFAVYYCQQYNNWPITFGGGTKVEIK
notes: Fab format
B12: Clone H Fab (Fab, V domains shown)
VH: QVQLVQSGAEVKKPGSSVKVSCKASGGTFSSYYISWVRQAPGQGLEWMGGIAPISGTASYAQKFQGRVTITADESTSTAYMELSSLRSEDTAVYYCARGLAYDGYFDLWGRGTLVTVSS
VL: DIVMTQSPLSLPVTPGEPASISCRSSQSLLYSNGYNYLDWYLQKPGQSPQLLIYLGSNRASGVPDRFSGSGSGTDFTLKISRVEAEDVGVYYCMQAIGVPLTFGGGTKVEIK
notes: Fab format
B13: Clone B Fab (Fab, V domains shown)
VH: QVQLQESGPGLVKPSQTLSLTCTVSGGSISSGGIYWTWIRQHPGKGLEWIGAIAYSGSTYYNPSLKSRVTISVDTSKNQFSLKLSSVTAADTAVYYCARGIEYQHFDYWGQGTLVTVSS
VL: not shown
notes: Fab format
B14: Clone C Fab (Fab, V domains shown)
VH: QVQLQESGPGLVKPSQTLSLTCTVSGGSISSGGYYWSWIRQHPGKGLEWIGAIVYSGHTYYNPSLKSRVTISVDTSKNQFSLKLSSVTAADTAVYYCARGVEYQHFSLWGQGTLVTVSS
VL: not shown
notes: Fab format; also called Fab of Clone C
B15: Clone R Fab (Fab, V domains shown)
VH: QVQLQESGPGLVKPSQTLSLTCTVSGGSISSGGIYWTWIRQHPGKGLEWIGAIAYSGSTYYNPSLESRVTISVDTSKNQFSLKLSSVTAADTAVYYCARGIEYQHFDYWGQGTLVTVSS
VL: not shown
notes: Fab format
B16: Clone D Fab (Fab, V domains shown)
VH: QVQLQESGPGLVKPSQTLSLTCTVSGGSINSGGYYWTWIRQHPGKGLEWIGAIYYSGSTVYNPSLKSRVTISVDTSKNQFSLKLSSVTAADTAVYYCARGVEYQHFNEWGQGTLVTVSS
VL: not shown
notes: Fab format
B17: Clone Q Fab (Fab, V domains shown)
VH: QVQLQESGPGLVKPSQTLSLTCTVSGGSISSGGIYWTWIRQHPGKGLEWIGAIAYSGSTYYNPSLKSRVTISVDTSKNQFSLKLSSVTAADTAVYYCARGIEYQHFDYWGQGTLVTVSS
VL: not shown
notes: Fab format
B18: Clone A Fab (Fab, V domains shown)
VH: QVQLQESGPGLVKPSQTLSLTCTVSGGSITSGGSYWSWIRQHPGKGLEWIGAIVYSGSTYYNPSLKSRVTISVDTSKNQFSLKLSSVTAADTAVYYCARGVEYQHFDYWGQGTLVTVSS
VL: not shown
notes: Fab format; also called Fab of Clone A

Experiments:
[1] = target: T1, Mouse GDF15 Fc; assay: Octet BLI, Fab monovalent
[2] = target: T2, Cyno GDF15 Fc; assay: Octet BLI, Fab monovalent
[3] = target: T3, GDF15; assay: cell-based or functional assay
[4] = target: T4, Human BMP10; assay: Octet BLI, IgG on tip, avid
[5] = target: T5, Human Activin B; assay: Octet BLI, IgG on tip, avid
[6] = target: T6, Human Activin A Fc; assay: Octet BLI, IgG on tip, avid
[7] = target: T7, GDNF; assay: Octet BLI, IgG on tip, avid
[8] = target: T8, GDF11 (UniProt O95390 299-407); assay: Octet BLI, IgG on tip, avid
T8 construct: Also the GDF-11 ligand of the ActRIIB/SMAD reporter assay
T8 sequence (O95390 299-407 limits assumed): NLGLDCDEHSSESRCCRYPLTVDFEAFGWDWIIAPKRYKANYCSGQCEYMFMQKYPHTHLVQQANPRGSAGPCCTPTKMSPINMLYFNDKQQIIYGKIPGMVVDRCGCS

[9] = target: GDF8 (UniProt O14793 267-375); assay: Octet BLI, IgG on tip, avid

| Binder | Kd [1] [nM] | Kd [2] [nM] | GDF15 GFRAL RET pERK Fab IC50 pM [3] | other results |
| --- | --- | --- | --- | --- |
| B1 | 3.08 | 0.413 | 46.7 pM | – |
| B2 | 11.6 | 0.277 | – | – |
| B3 | 1.45 | 1.38 | 111 pM | – |
| B4 | – | 0.769 | 75.1 pM | – |
| B5 | 1.36 | 0.252 | – | – |
| B6 | 1.92 | 0.369 | – | – |
| B7 | – | 1.72 | 701 pM and 1000 pM | – |
| B8 | – | – | – | binding result [4]: no binding (tested: 100 nM); binding result [5]: no binding (tested: 100 nM); binding result [6]: no binding (tested: 100 nM); binding result [7]: no binding (tested: 100 nM); binding result [8]: no binding (tested: 100 nM); binding result [9]: no binding (tested: 100 nM); GDF15 - GFRAL RET pERK IC50 (pM) [3]: 34.9 pM; GDF15 - GFRAL-RET Luciferase IC50 (pM) [3]: 91.3 pM |
| B9 | 26.1 | 0.553 | 11.2 pM | – |
| B10 | – | 0.474 | 33.2 pM | – |
| B11 | 2.56 | – | 322 pM | – |
| B12 | 50.9 | 1.42 | 24.6 pM | – |
| B13 | – | 0.349 | 30.9 pM | – |
| B14 | 156 | 0.36 | 36.8 pM | – |
| B15 | 234 | 0.366 | – | – |
| B16 | 157 | 0.562 | 27 pM | – |
| B17 | 204 | 0.327 | – | – |
| B18 | – | 0.536 | 26.5 pM | – |
